Measured values as given in US6121020, “Hepatitis C E1 and E2 polypeptides and methods of obtaining the same” (Chiron Corporation, dated 2000).

Target: probable NS4B (27 kDa), expressed from pTM1-NS25 (hepatitis C virus, UniProt P26664)
Experiment: co-immunoprecipitation with anti-E2 antibody from lysates of cells co-transfected with pTM1-NS25

B1: E2 species encoded by the template terminating at amino acid 699 (other)
chain: ETHVTGGSAGHTVSGFVSLLAPGAKQNVQLINTNGSWHLNSTALNCNDSLNTGWLAGLFYHHKFNSSGCPERLASCRPLTDFDQGWGPISYANGSGPDQRPYCWHYPPKPCGIVPAKSVCGPVYCFTPSPVVVGTTDRSGAPTYSWGENDTDVFVLNNTRPPLGNWFGCTWMNSTGFTKVCGAPPCVIGGAGNNTLHCPTDCFRKHPDATYSRCGSGPWITPRCLVDYPYRLWHYPCTINYTIFKIRMYVGGVEHRLEAACNWTRGERCDLEDRDRSELSPLLLTTTQWQVLPCSFTTLPALSTGLIHLHQNIVDV
- binding result: no binding
